Assays:
Assay in all cases: holdup assay
Set-up in all cases: key: below the threshold = too weak to quantify, mostly under pKd 3.1 to 4
[1] = target: CASK, O14936
[2] = target: T1, DFNB31_1, Q9P202
T1 sequence (Q9P202 135-233, limits assumed, looked up): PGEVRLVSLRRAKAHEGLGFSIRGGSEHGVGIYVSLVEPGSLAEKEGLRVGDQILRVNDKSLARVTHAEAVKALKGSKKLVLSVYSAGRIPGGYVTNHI

[3] = target: T2, DFNB31_2, Q9P202
T2 sequence (Q9P202 274-371, limits assumed, looked up): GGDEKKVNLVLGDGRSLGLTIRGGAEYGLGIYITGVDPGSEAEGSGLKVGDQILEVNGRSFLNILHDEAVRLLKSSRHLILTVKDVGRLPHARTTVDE

[4] = target: DLG5_1, Q8TDM6
[5] = target: T3, FRMPD1, Q5SYB0
T3 sequence (Q5SYB0 52-145, limits assumed, looked up): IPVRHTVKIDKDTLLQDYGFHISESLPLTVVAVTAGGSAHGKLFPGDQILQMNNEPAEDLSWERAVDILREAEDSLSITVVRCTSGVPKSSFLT

[6] = target: FRMPD2_3, Q68DX3
[7] = target: FRMPD4, Q14CM0
[8] = target: GIPC2, Q8TF65; settings: plain residues with an end cap or a label only (N-terminal biotin on a linker: ado-ado)
[9] = target: T4, GRIP1_2, Q9Y3R0
T4 sequence (Q9Y3R0 145-248, limits assumed, looked up): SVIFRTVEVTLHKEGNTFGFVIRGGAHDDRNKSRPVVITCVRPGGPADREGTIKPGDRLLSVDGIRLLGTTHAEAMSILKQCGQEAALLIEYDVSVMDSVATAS

[10] = target: GRIP2_6, Q9C0E4
[11] = target: Inadl_3, Q8NI35
[12] = target: T5, LRRC7, Q96NW7
T5 sequence (Q96NW7 1440-1537, limits assumed, looked up): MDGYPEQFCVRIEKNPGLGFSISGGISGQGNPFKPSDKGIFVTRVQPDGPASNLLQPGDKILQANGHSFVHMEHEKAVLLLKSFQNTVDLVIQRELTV

[13] = target: MAGI1_2, Q96QZ7
[14] = target: T6, MPP2, Q14168
T6 sequence (Q14168 180-250, limits assumed, looked up): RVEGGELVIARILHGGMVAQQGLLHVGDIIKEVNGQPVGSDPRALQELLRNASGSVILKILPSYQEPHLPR

[15] = target: T7, PCLO, Q9Y6V0
T7 sequence (Q9Y6V0 4491-4600, limits assumed, looked up): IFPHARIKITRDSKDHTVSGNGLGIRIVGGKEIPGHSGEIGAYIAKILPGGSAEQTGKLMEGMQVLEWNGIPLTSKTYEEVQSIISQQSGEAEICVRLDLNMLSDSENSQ

[16] = target: T8, PDZD2_2, O15018
T8 sequence (O15018 329-429, limits assumed, looked up): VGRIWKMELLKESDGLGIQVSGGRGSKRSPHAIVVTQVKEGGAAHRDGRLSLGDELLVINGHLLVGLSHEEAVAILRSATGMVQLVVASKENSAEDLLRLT

[17] = target: T9, PDZRN3_1, Q9UPQ7
T9 sequence (Q9UPQ7 244-349, limits assumed, looked up): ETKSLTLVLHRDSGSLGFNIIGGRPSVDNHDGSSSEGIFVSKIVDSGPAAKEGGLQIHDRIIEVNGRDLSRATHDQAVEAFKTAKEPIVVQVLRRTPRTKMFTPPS

[18] = target: T10, PTPN13_1, Q12923
T10 sequence (Q12923 1088-1188, limits assumed, looked up): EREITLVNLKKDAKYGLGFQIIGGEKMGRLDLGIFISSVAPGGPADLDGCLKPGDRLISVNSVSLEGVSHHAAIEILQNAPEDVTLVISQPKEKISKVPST

[19] = target: T11, SNTG1, Q9NSN8
T11 sequence (Q9NSN8 52-150, limits assumed, looked up): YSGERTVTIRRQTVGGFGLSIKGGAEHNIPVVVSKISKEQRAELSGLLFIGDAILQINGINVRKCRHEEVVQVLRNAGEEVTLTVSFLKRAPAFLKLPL

[20] = target: SNX27, Q96L92
[21] = target: T12, SYNJ2BP, P57105
T12 sequence (P57105 8-110, limits assumed, looked up): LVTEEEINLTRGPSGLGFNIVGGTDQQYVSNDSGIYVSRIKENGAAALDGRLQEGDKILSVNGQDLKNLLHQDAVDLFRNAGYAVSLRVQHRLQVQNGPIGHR

[22] = target: T13, TIAM2, Q8IVF5
T13 sequence (Q8IVF5 885-986, limits assumed, looked up): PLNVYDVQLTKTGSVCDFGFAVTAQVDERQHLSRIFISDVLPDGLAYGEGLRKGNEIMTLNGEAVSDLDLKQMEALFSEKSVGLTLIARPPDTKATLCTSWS

[23] = target: T14, TX1BP3, O14907
T14 sequence (O14907 10-122, limits assumed, looked up): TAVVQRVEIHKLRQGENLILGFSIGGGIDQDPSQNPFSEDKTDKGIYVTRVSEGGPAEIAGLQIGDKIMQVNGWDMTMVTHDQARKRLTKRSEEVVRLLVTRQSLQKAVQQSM

[24] = plain residues with an end cap or a label only (N-terminal biotin on a linker: ado-ado)
[25] = modified: acetyl on K at position -1 from the C-terminal residue

Measured: pKd

Sequence of GRIP2_6, Q9C0E4 (Q9C0E4 648-740): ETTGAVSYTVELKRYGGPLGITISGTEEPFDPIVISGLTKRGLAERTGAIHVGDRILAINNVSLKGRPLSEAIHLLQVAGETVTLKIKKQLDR
Sequence of Inadl_3, Q8NI35 (Q8NI35 359-469): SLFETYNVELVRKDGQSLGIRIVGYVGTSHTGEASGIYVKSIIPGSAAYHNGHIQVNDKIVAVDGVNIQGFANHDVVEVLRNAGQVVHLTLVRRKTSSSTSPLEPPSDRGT
Sequence of FRMPD2_3, Q68DX3 (Q68DX3 1073-1166): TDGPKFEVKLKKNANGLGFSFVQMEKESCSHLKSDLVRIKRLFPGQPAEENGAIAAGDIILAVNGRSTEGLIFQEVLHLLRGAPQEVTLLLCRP
Sequence of CASK, O14936 (O14936 487-570): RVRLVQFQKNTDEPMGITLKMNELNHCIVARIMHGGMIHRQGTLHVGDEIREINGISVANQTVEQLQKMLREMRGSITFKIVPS
Sequence of MAGI1_2, Q96QZ7 (Q96QZ7 456-580): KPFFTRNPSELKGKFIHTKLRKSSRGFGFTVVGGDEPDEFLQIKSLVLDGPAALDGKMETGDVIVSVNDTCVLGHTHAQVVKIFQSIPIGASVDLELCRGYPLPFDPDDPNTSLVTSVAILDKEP
Sequence of FRMPD4, Q14CM0 (Q14CM0 67-160): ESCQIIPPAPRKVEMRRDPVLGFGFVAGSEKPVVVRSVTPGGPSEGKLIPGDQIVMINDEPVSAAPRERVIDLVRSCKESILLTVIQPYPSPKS
Sequence of DLG5_1, Q8TDM6 (Q8TDM6 617-713): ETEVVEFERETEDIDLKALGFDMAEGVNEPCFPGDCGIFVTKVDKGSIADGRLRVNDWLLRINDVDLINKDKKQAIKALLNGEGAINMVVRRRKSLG
Sequence of GIPC2, Q8TF65 (Q8TF65 112-203): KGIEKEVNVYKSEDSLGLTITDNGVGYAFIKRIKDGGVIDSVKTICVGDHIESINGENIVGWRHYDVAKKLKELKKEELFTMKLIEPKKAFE

SKSLERATQL [COMMD3, Q9UBI1]
3.49: [6]; [24] | [8]
3.85: [13]; [24]
3.51: [19]; [24]
3.95: [16]; [24]
4.33: [7]; [24]
3.88: [22]; [24]
4.11: [17]; [24]
3.74: [2]; [24]
3.73: [21]; [24]
3.5: [9]; [24]
below the threshold: [1]; [24] | [3]; [24] | [4]; [24] | [5]; [24] | [10]; [24] | [11]; [24] | [12]; [24] | [14]; [24] | [15]; [24] | [18]; [24] | [23]; [24]
4.25: [20]; [24]

EYRKDNKVAA [LSM14A, Q8ND56;Q8ND56-2]
4.1: [22]; [24]
below the threshold: [1]; [24] | [2]; [24] | [3]; [24] | [4]; [24] | [5]; [24] | [6]; [24] | [7]; [24] | [8] | [9]; [24] | [10]; [24] | [11]; [24] | [12]; [24] | [13]; [24] | [14]; [24] | [15]; [24] | [16]; [24] | [17]; [24] | [18]; [24] | [19]; [24] | [20]; [24] | [21]; [24] | [23]; [24]

GDHLDRRVVL [VAC14, Q08AM6]
3.71: [23]; [24]
below the threshold: [1]; [24] | [2]; [24] | [4]; [24] | [5]; [24] | [6]; [24] | [8] | [9]; [24] | [10]; [24] | [11]; [24] | [12]; [24] | [14]; [24] | [15]; [24] | [16]; [24] | [17]; [24] | [19]; [24] | [20]; [24] | [21]; [24] | [22]; [24]
3.51: [3]; [24] | [13]; [24]
3.7: [18]; [24]
3.82: [7]; [24]

DEDQHTQITKV [PTEN_Ac, P60484]
4.22: [16]; [25]
3.61: [21]; [25]
below the threshold: [1]; [25] | [3]; [25] | [4]; [25] | [5]; [25] | [6]; [25] | [7]; [25] | [9]; [25] | [10]; [25] | [11]; [25] | [12]; [25] | [14]; [25] | [15]; [25] | [17]; [25] | [18]; [25] | [22]; [25]
4.45: [19]; [25]
3.68: [2]; [25]
5.32: [20]; [25]
3.69: [13]; [25]
3.74: [23]; [25]

LRYARPADAL [PPP1R3G, B7ZBB8]
3.66: [7]; [24]
3.49: [20]; [24]
below the threshold: [1]; [24] | [2]; [24] | [3]; [24] | [4]; [24] | [5]; [24] | [6]; [24] | [8] | [9]; [24] | [10]; [24] | [11]; [24] | [12]; [24] | [13]; [24] | [14]; [24] | [15]; [24] | [16]; [24] | [17]; [24] | [18]; [24] | [19]; [24] | [21]; [24] | [22]; [24] | [23]; [24]

KSTTRSSSSC [NDE1, Q9NXR1;Q9NXR1-2]
below the threshold: [1]; [24] | [2]; [24] | [3]; [24] | [4]; [24] | [5]; [24] | [6]; [24] | [7]; [24] | [9]; [24] | [10]; [24] | [11]; [24] | [12]; [24] | [14]; [24] | [15]; [24] | [17]; [24] | [18]; [24] | [19]; [24] | [20]; [24]
3.93: [23]; [24]
4.09: [16]; [24]
